The values below come from US20240084003A1 (SIMCERE ZAIMING PHARMACEUTICAL, published 2024).

The target of test [1] is T1, murine CD22 protein (ACROBiosystems, SI2-M52Ha) (murine, UniProt P35329 22-708).
T1 construct: extracellular domain; also called murine CD22-ECD; murine CD22-ECD-His
T1 sequence (looked up): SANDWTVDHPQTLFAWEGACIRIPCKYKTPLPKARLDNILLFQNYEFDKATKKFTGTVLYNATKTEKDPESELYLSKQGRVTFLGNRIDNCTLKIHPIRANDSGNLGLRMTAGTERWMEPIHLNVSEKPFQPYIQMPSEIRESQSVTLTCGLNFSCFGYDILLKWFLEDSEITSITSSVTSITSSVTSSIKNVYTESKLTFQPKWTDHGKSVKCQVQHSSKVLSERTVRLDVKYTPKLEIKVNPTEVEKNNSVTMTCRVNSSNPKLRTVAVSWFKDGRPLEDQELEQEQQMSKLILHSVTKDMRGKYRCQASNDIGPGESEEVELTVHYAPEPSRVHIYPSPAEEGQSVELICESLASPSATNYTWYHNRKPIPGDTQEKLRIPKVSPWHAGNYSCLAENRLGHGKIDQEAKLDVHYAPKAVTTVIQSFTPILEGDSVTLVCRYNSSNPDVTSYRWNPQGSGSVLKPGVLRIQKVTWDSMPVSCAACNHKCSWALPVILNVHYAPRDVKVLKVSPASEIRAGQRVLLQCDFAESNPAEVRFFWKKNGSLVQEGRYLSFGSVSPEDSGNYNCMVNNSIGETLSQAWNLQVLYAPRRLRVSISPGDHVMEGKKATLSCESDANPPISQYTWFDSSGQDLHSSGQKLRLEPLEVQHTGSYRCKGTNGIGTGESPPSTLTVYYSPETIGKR
Description: ELISA, coated murine CD22, 0.1 nM Ab. The gist of the method: (§1)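 Read-out is TMB absorbance after a 30 min room-temperature development stopped with 1.0 N HCl. It reflects chimeric antibody bound to plate-coated CD22 (2 μg/mL), detected with an HRP-labelled secondary antibody. Antibody and secondary incubations each ran 2 h at 37° C.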
(ELISA stands for enzyme-linked immunosorbent assay.)

For test [2], the target named is T1, murine CD22 protein (ACROBiosystems, …). Description: ELISA, coated murine CD22, 10 nM Ab. The method, boiled down:
as §1

For test [3] the target is unchanged. As to the kind of experiment: ELISA, coated murine CD22, 0.00001 nM Ab. The gist of the method:
as §1

Test [4] has as its target T2, human CD22, full length, on CHO-K1-human CD22 2C4 cells (human, UniProt P20273 20-847).
T2 construct: Full-length human CD22 (NCBI NP_001762.2) stably transfected into CHO-K1
T2 sequence: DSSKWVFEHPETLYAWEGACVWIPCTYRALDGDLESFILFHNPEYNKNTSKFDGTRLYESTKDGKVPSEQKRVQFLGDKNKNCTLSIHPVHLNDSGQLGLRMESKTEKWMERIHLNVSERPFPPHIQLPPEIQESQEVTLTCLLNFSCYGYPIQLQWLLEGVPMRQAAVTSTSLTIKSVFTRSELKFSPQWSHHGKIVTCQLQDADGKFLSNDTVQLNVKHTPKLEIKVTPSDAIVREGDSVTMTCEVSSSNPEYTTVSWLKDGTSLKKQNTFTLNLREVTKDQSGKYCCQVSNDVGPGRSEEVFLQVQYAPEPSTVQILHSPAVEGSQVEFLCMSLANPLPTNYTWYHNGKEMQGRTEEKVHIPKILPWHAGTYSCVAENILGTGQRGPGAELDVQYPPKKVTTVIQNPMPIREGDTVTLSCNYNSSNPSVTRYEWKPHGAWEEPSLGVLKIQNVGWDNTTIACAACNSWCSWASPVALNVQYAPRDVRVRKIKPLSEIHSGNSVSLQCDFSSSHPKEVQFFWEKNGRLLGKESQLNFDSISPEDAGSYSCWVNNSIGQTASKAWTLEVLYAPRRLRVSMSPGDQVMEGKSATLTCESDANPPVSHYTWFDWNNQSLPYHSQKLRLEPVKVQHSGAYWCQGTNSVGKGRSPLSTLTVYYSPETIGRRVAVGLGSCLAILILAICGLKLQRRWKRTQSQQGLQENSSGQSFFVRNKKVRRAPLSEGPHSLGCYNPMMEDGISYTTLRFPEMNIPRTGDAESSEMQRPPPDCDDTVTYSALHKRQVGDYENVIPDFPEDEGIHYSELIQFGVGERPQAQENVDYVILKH
As to the kind of experiment: FACS, CHO-K1-human CD22 2C4 cells. An excerpt:
(§2) The required cells were scale-up cultured in a T-75 cell culture flask to the logarithmic growth phase. For the adherent cell CHO-K1, the medium was aspirated, the cells were washed 2 times with PBS buffer, and then digested with trypsin. After the digestion was terminated, the cells were washed 2 times with PBS buffer. For suspension cell Raji, the medium supernatant was directly centrifuged and discarded, and the cell pellet was washed 2 times with PBS. After counting the cells in the previous step, the cell pellet was resuspended with [PBS+2% (w/w) BSA] blocking solution to 2×10⁶ cells/ml, and added to a 96-well FACS reaction plate at 50 μl/well, and then the chimeric antibody test sample was added at 50 μl/well, and incubated on ice for 2 hours. The mixture was centrifuged and washed 3 times with PBS buffer, Alexa Flour 488-labeled secondary antibody (purchased from Invitrogen, catalog number: A-11013) was added at 50 μl/well, and incubated on ice for 1 hour. The obtained mixture was centrifuged and washed 5 times with PBS, and FACS (FACS Canto™, purchased from BD Company) was used for detection and result analysis. Data analysis was performed by software (CellQuest) to obtain the mean fluorescence density (MFI)of the cells. And then software (GraphPad Prism8) was used for analysis, data fitting, and EC50 value calculation. […] The same method was used to detect the binding of the chimeric antibodies to endogenous CD22-negative cell MoLT4 cells (purchased from ATCC, CRL-1582) and CHO-K1 cells.
Background: Flow cytometry measures light scatter and fluorescence of single cells or particles in a stream.

Test [5] deals with T1, murine CD22 protein (ACROBiosystems, …). As to the kind of experiment: ELISA, coated murine CD22, 0.001 nM Ab. The method, boiled down: as §1
Test [6] shares this target. Description: ELISA, coated murine CD22, 100 nM Ab. The method, boiled down:
as §1

For test [7] the target is unchanged. Description: ELISA, coated murine CD22, 0.01 nM Ab. The method, boiled down: as §1
Test [8] has the same target. As to the kind of experiment: ELISA, coated murine CD22, 0.0001 nM Ab. The method, boiled down:
as §1

Test [9] deals with T3, human CD22, endogenous on Raji cells (human, UniProt P20273 20-847).
T3 construct: whole, on cells; Endogenous protein of the Raji cell line
T3 sequence (looked up): T2 sequence
Description: FACS, Raji cells.
Excerpt: as §2

The target in test [10] is T3, human CD22, endogenous on Raji cells. As to the kind of experiment: FACS, Raji cells. The method, boiled down:
(§3)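 Raji cells and CHO-K1 cells expressing human CD22 were blocked in PBS + 2% BSA at 2×10⁶ cells/ml and incubated with chimeric antibody for 2 h on ice. Bound antibody was detected with an Alexa Fluor 488 secondary for 1 h on ice and read by flow cytometry as MFI. EC50 came from curve fitting.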
The source holds these as a separate data set.

Test [11] addresses T2, human CD22, full length, on …. As to the kind of experiment: FACS, CHO-K1-human CD22 2C4 cells. The gist of the method: as §3
This is another data set of the same source.

Like-named read-outs stand apart in the source and are kept apart here.

B1: F2.121.9 human-murine chimeric antibody (antibody, human IgG1, lambda, V domains shown)
VH: EVQLVESGGGLVKPGGSLKLSCAASGFTFSDYVMSWIRQTPEKRLEWVATISDAGSYTFYPDNLKGRFTISRDNAKNNLYLQMNHLTSEDTAFYYCAIIYFGNYGGYWGQGTLVTVSV
VL: QAVVTQESALTTSPGGTVVLTCRSNTGAVTTSNYANWVQEKPDHLFTGLIGGTSNRAPGVPVRFSGSLIGDKAALTITGAQTEDDAMYFCALWYSTHWVFGGGTKLTVLG
notes: Chimeric, human IgG1 / lambda
The term EC50 denotes the concentration that produces a half-maximal response. A higher EC50 goes with a need for much substance. Take B1: the OD450 in test [1] turned out to be 0.05 OD450; in [2], 0.06 OD450; in test [3], 0.06 OD450; in [5] it was 0.06 OD450; in test [6], 0.06 OD450; in test [7], 0.05 OD450. The same molecule registered an OD450 in test [8] of 0.06 OD450. The figures for the EC50 in test [4] and in test [9] were 1.09 nM and 0.86 nM, respectively. Also, the “Maximum mean fluorescence intensity” value in [4] came out at 39700 MFI; in test [9] it was 18900 MFI.

B2: HA22-hIgG1 (antibody, V domains shown)
VH: EVQLVESGGGLVKPGGSLKLSCAASGFAFSIYDMSWVRQTPEKCLEWVAYISSGGGTTYYPDTVKGRFTISRDNAKNTLYLQMSSLKSEDTAMYYCARHSGYGTHWGVLFAYWGQGTLVTVSA
VL: DIQMTQTTSSLSASLGDRVTISCRASQDISNYLNWYQQKPDGTVKLLIYYTSILHSGVPSRFSGSGSGTDYSLTISNLEQEDFATYFCQQGNTLPWTFGCGTKLEIKR
For B2, the OD450 in test [1] is 0.06 OD450; in [2], 0.07 OD450; in test [3], 0.06 OD450; in [5], 0.05 OD450; in test [6], 0.1 OD450; in [7], 0.06 OD450. In addition, the OD450 in test [8] turned out to be 0.06 OD450. In addition, the EC50 in test [10] was 0.29 nM; in test [11], 0.81 nM; in test [4] it was 1.1 nM; in test [9], 0.71 nM. The “Maximum mean fluorescence intensity” value in [10] stood at 25000 MFI; in test [11] it was 32700 MFI; in test [4] it was 43400 MFI; in test [9] it was 19700 MFI.

B3: F2.173.9 human-murine chimeric antibody (antibody, human IgG1, lambda, V domains shown)
VH: EVQLVESGGDLVKPGESLKLSCEASGFTFSNYAMSWVRQTPDRRLEWVATISSIGSFTYYSDSVKGRFTISRDNVKSTLHLQMNNLKSGDTAIYFCARLGVYFDSWGQGTTLTVSS
VL: QLVLTQSSSASFSLGASAKLTCTLSSQHSTYTIEWYQQQPHKPPKFVMEIKKDGSHYTGDGIPDRFSGSSSGADRYLSISNIQPEDETIYICGVSDMIKDQFVYVFGGGTKVTVLG
notes: Chimeric, human IgG1 / lambda
For B3, the OD450 in test [1] was 0.05 OD450; in [2], 0.06 OD450; in test [3], 0.06 OD450; in test [5], 0.05 OD450; in test [6] it was 0.09 OD450; in test [7], 0.05 OD450. The OD450 in test [8] was found to be 0.05 OD450. The EC50 in [4] amounted to 1.23 nM; in test [9] it was 0.84 nM. Further, the “Maximum mean fluorescence intensity” value amounted to 40300 MFI in [4] and 18900 MFI in test [9].
